Test system: Bacillus subtilis
Assay: cleaved RNA product abundance (RNA/gDNA barcode ratio) relative to median wild-type variant (ratio to wild type); higher = more accumulation of the downstream cleavage product
Conditions: cleavage site: cggR-gapA (positions -7 to +36 mutated)
Outline: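 Cleaved product abundance is expressed as the RNA:gDNA barcode ratio per construct, scaled to the median construct carrying the unmutated site. The constructs were barcoded, mutagenized RNase Y cleavage-site windows in truncated aprE or tetM reporter mRNAs integrated into the B. subtilis chromosome. Cultures grew in LB at 37°C from OD600 0.0003 to 0.3 before cleaved RNA was gel-selected and barcode-sequenced.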

[1] = experiment (reporter, strain, medium): exp 4a: truncated aprE reporter, strain BJT201 with 2% xylose (RNase J1 expressed)
[2] = experiment (reporter, strain, medium): exp 2b: truncated aprE reporter, strain BJT200
[3] = experiment (reporter, strain, medium): exp 6: tetM reporter, strain 168

Sequence	cleaved RNA product abundance [1]	cleaved RNA product abundance [2]	cleaved RNA product abundance [3]
ACAGACGAAGGAGCCGCAAAGAAGTTATTAAGGGATGAATAATCCCTAAACATAAATATCTCTCACTTATTTAAA	0.323		
ACAGACGAAGGAGCCGCAAAGAAGTTATTAAGGGATGAATAATCCCTAAAGATAAATATCTCTCACTTATTTAAA		0.259	
ACAGACGAAGGAGCCGCAAAGAAGTTATTAAGGGATGAATAATCCCTAAATACAAATATCTCTCACTTATTTAAA	0.0687		
ACAGACGAAGGAGCCGCAAAGAAGTTATTAAGGGATGAATAATCCCTAAATATAAAAATCTCTCACTTATTTAAA	0.622	0.46	
ACAGACGAAGGAGCCGCAAAGAAGTTATTAAGGGATGAATAATCCCTAAATATAAACATCTCTCACTTATTTAAA	0.57	0.509	
ACAGACGAAGGAGCCGCAAAGAAGTTATTAAGGGATGAATAATCCCTAAATATAAAGATCTCTCACTTATTTAAA	0.356		
ACAGACGAAGGAGCCGCAAAGAAGTTATTAAGGGATGAATAATCCCTAAATATAAATAACTCTCACTTATTTAAA	0.442		
ACAGACGAAGGAGCCGCAAAGAAGTTATTAAGGGATGAATAATCCCTAAATATAAATATCTCTCACTATTTAAAG	0.705		
ACAGACGAAGGAGCCGCAAAGAAGTTATTAAGGGATGAATAATCCCTAAATATAAATATCTCTCACTTATTTAAA	0.72	0.622	0.772
ACAGACGAAGGAGCCGCAAAGAAGTTATTAAGGGATGAATAATCCCTAAATATAAATATTTCTCACTTATTTAAA	0.836		
ACAGACGAAGGAGCCGCAAAGAAGTTATTAAGGGATGAATAATCCCTAAATATACATATCTCTCACTTATTTAAA	0.465	0.498	
ACAGACGAAGGAGCCGCAAAGAAGTTATTAAGGGATGAATAATCCCTAAATATAGATATCTCTCACTTATTTAAA	0.551	0.495	
ACAGACGAAGGAGCCGCAAAGAAGTTATTAAGGGATGAATAATCCCTAAATATTAATATCTCTCACTTATTTAAA		0.189	
ACAGACGAAGGAGCCGCAAAGAAGTTATTAAGGGATGAATAATCCCTAAATTTAAATATCTCTCACTTATTTAAA		0.162	
ACAGACGAAGGAGCCGCAAAGAAGTTATTAAGGGATGAATAATCCCTAAGTATAAATATCTCTCACTTATTTAAA	0.502	0.255	
ACAGACGAAGGAGCCGCAAAGAAGTTATTAAGGGATGAATAATCCCTAATTATAAATATCTCTCACTTATTTAAA	0.447	0.365	
ACAGACGAAGGAGCCGCAAAGAAGTTATTAAGGGATGAATAATCCCTACATATAAATATCTCTCACTTATTTAAA	0.203		
ACAGACGAAGGAGCCGCAAAGAAGTTATTAAGGGATGAATAATCCCTATATATAAATATCTCTCACTTATTTAAA	0.37		
ACAGACGAAGGAGCCGCAAAGAAGTTATTAAGGGATGAATAATCCCTCAAAAAAAATATCTCTCACTTATTTAAA	0.0713		

Sequence	cleaved RNA product abundance [1]	cleaved RNA product abundance [2]	cleaved RNA product abundance [3]
ACAGACGAAGGAGCCGCAAAGAAGTTATTAAGGGATGAATAATCCCTCAAAAGAAATATCTCTCACTTATTTAAA	0.0815		
ACAGACGAAGGAGCCGCAAAGAAGTTATTAAGGGATGAATAATCCCTCAAAATAAAAATCTCTCACTTATTTAAA	0.393		
ACAGACGAAGGAGCCGCAAAGAAGTTATTAAGGGATGAATAATCCCTCAAAATAAACATCTCTCACTTATTTAAA	0.316		
ACAGACGAAGGAGCCGCAAAGAAGTTATTAAGGGATGAATAATCCCTCAAAATAAATAACTCTCACTTATTTAAA	0.363		
ACAGACGAAGGAGCCGCAAAGAAGTTATTAAGGGATGAATAATCCCTCAAAATAAATAGCTCTCACTTATTTAAA		0.26	
ACAGACGAAGGAGCCGCAAAGAAGTTATTAAGGGATGAATAATCCCTCAAAATAAATATCTCTCACTTATTTAAA	0.393	0.302	0.369
ACAGACGAAGGAGCCGCAAAGAAGTTATTAAGGGATGAATAATCCCTCAAAATAAATATTTCTCACTTATTTAAA	0.319		
ACAGACGAAGGAGCCGCAAAGAAGTTATTAAGGGATGAATAATCCCTCAAAATAAATTTCTCTCACTTATTTAAA	0.285		
ACAGACGAAGGAGCCGCAAAGAAGTTATTAAGGGATGAATAATCCCTCAAAATACATATCTCTCACTTATTTAAA	0.3	0.202	
ACAGACGAAGGAGCCGCAAAGAAGTTATTAAGGGATGAATAATCCCTCAAAATAGATATCTCTCACTTATTTAAA	0.322		
ACAGACGAAGGAGCCGCAAAGAAGTTATTAAGGGATGAATAATCCCTCAAAATATATATCTCTCACTTATTTAAA	0.304		
ACAGACGAAGGAGCCGCAAAGAAGTTATTAAGGGATGAATAATCCCTCAAATATAAATATCTCTCACTTATTTAA	0.539	0.38	
ACAGACGAAGGAGCCGCAAAGAAGTTATTAAGGGATGAATAATCCCTCAACAAAAATATCTCTCACTTATTTAAA		0.105	
ACAGACGAAGGAGCCGCAAAGAAGTTATTAAGGGATGAATAATCCCTCAACATAAAAATCTCTCACTTATTTAAA	0.234	0.242	
ACAGACGAAGGAGCCGCAAAGAAGTTATTAAGGGATGAATAATCCCTCAACATAAACATCTCTCACTTATTTAAA	0.215		
ACAGACGAAGGAGCCGCAAAGAAGTTATTAAGGGATGAATAATCCCTCAACATAAATATCTCTCACTTATTTAAA	0.345	0.22	0.137
ACAGACGAAGGAGCCGCAAAGAAGTTATTAAGGGATGAATAATCCCTCAACATACATATCTCTCACTTATTTAAA	0.273		
ACAGACGAAGGAGCCGCAAAGAAGTTATTAAGGGATGAATAATCCCTCAAGATAAATATCTCTCACTTATTTAAA	0.256	0.217	0.289
ACAGACGAAGGAGCCGCAAAGAAGTTATTAAGGGATGAATAATCCCTCAAGATAAATATTTCTCACTTATTTAAA	0.27		

Sequence	cleaved RNA product abundance [1]	cleaved RNA product abundance [2]	cleaved RNA product abundance [3]
ACAGACGAAGGAGCCGCAAAGAAGTTATTAAGGGATGAATAATCCCTCAATAAAAATATCTCTCACTTATTTAAA	0.147	0.172	0.28
ACAGACGAAGGAGCCGCAAAGAAGTTATTAAGGGATGAATAATCCCTCAATAAAAATGTCTCTCACTTATTTAAA	0.0307		
ACAGACGAAGGAGCCGCAAAGAAGTTATTAAGGGATGAATAATCCCTCAATACAAATACCTCTCACTTATTTAAA	0.0316		
ACAGACGAAGGAGCCGCAAAGAAGTTATTAAGGGATGAATAATCCCTCAATACAAATATCTCTCACTTATTTAAA	0.0683	0.117	0.23
ACAGACGAAGGAGCCGCAAAGAAGTTATTAAGGGATGAATAATCCCTCAATAGAAATACCTCTCACTTATTTAAA	0.0433		
ACAGACGAAGGAGCCGCAAAGAAGTTATTAAGGGATGAATAATCCCTCAATAGAAATATCTCTCACTTATTTAAA	0.111	0.164	0.165
ACAGACGAAGGAGCCGCAAAGAAGTTATTAAGGGATGAATAATCCCTCAATATAAAAATCACTCACTTATTTAAA	1.16		
ACAGACGAAGGAGCCGCAAAGAAGTTATTAAGGGATGAATAATCCCTCAATATAAAAATCTCTCACTTATTTAAA	0.794	0.906	0.602
ACAGACGAAGGAGCCGCAAAGAAGTTATTAAGGGATGAATAATCCCTCAATATAAAAATGTCTCACTTATTTAAA	1.17		
ACAGACGAAGGAGCCGCAAAGAAGTTATTAAGGGATGAATAATCCCTCAATATAAAAATTTCTCACTTATTTAAA	0.688		
ACAGACGAAGGAGCCGCAAAGAAGTTATTAAGGGATGAATAATCCCTCAATATAAAATATCTCTCACTTATTTAA		0.806	
ACAGACGAAGGAGCCGCAAAGAAGTTATTAAGGGATGAATAATCCCTCAATATAAACATCTCTCACTTATTTAAA	0.702	0.652	0.847
ACAGACGAAGGAGCCGCAAAGAAGTTATTAAGGGATGAATAATCCCTCAATATAAACATTTCTCACTTATTTAAA		0.752	
ACAGACGAAGGAGCCGCAAAGAAGTTATTAAGGGATGAATAATCCCTCAATATAAACCTCTCTCACTTATTTAAA	0.171		
ACAGACGAAGGAGCCGCAAAGAAGTTATTAAGGGATGAATAATCCCTCAATATAAAGATCTCTCACTTATTTAAA	0.627	0.666	
ACAGACGAAGGAGCCGCAAAGAAGTTATTAAGGGATGAATAATCCCTCAATATAAATAACTCTCACTTATTTAAA	0.849	0.903	0.706
ACAGACGAAGGAGCCGCAAAGAAGTTATTAAGGGATGAATAATCCCTCAATATAAATACATCTCACTTATTTAAA	0.712		
ACAGACGAAGGAGCCGCAAAGAAGTTATTAAGGGATGAATAATCCCTCAATATAAATACCTCTCACTTATTTAAA	0.56	0.69	0.593
ACAGACGAAGGAGCCGCAAAGAAGTTATTAAGGGATGAATAATCCCTCAATATAAATAGCTCTCACTTATTTAAA	0.616	0.637	0.688

From the supplement of paper PMC11780869
